Assay results taken from CN115710309A (INST PASTEUR SHANGHAI CAS, dated 2023).

Columns and labels:
Test in all cases: cell-based or functional assay
[1] = target: SARS-CoV-2 B.1.351突变株S蛋白 (假病毒) (SARS-CoV-2, UniProt P0DTC2 14-1273)
[2] = target: SARS-CoV-2 B.1.617.1突变株S蛋白 (假病毒) (SARS-CoV-2, UniProt P0DTC2 14-1273)
[3] = target: SARS-CoV-2 B.1.617.2突变株S蛋白 (假病毒) (SARS-CoV-2, UniProt P0DTC2 14-1273)

| Binder | 假病毒中和 IC50 [1] [ng/mL] | 假病毒中和 IC50 [2] [ng/mL] | 假病毒中和 IC50 [3] [ng/mL] |
| --- | --- | --- | --- |
| 单抗8D3 (antibody, V domains shown) VH: EVQLQQSGPELVKPGASVKISCKTSGYTFTEYTMYWVKQSHGKSLEWIGGINPNIGDTSYNQNFKGKATLTVDRSSSTAYMELRSLTSEDSAVYYCARDGYPYYYALDHWGQGTSVTVSS VL: DIVMTQSQKFMSTSVGDRVSVTCKASQNVGTNVAWYQQKPGQSPKALIYSTSYRYSGVPDRFTGSGSGTDFTLTISNVQSEDLAEYFCQQYNSYPYTFGGGTKLEIKR | 6 | 2 | 8 |
| 单抗2G3 (antibody) heavy: QVQLQQPGAELVKPGASVKMSCKASGYTFTTYTIHWLRQTPGQGLEWIGAIYPGIGDTSYNQSFKGKATLTADKSSSTAYMQLSSLTSEDSAVYYCARDGNYAPFTYWGQGTLVTVSAAKTTPPSVYPLAPGSAAQTNSMVTLGCLVKGYFPEPVTVTWNSGSLSSGVHTFPAVLQSDLYTLSSSVTVPSSTWPSETVTCNVAHPASSTKVDKKIVPRDCGCKPCICTVPEVSSVFIFPPKPKDVLTITLTPKVTCVVVDISKDDPEVQFSWFVDDVEVHTAQTQPREEQFNSTFRSVSELPIMHQDWLNGKEFKCRVNSAAFPAPIEKTISKTKGRPKAPQVYTIPPPKEQMAKDKVSLTCMITDFFPEDITVEWQWNGQPAENYKNTQPIMDTDGSYFVYSKLNVQKSNWEAGNTFTCSVLHEGLHNHHTEKSLSHSPGK light: DIVMSQSPSSLAVSVGEKVTMSCKSSQSLLYSNNQKNYLAWYQQKPGQSPKLLIYWTSTRESGVPDRFTGSGSGTDFTLTINSVKAEDLAVYYCQQYYRYPLTVGAGTKLELKRADAAPTVSIFPPSSEQLTSGGASVVCFLNNFYPKDINVKWKIDGSERQNGVLNSWTDQDSKDSTYSMSSTLTLTKDEYERHNSYTCEATHKTSTSPIVKSFNRNEC | 4 | 1 | 84 |
